Assay results taken from patent US20080058636A1, “METHODS OF MYOCARDIAL IMAGING” (Epix Pharmaceuticals, Inc., priority 2005, published 2008).
Bridge positions count the residues as written; N and C are the ends. Square brackets hold non-standard residues; d marks the D form. Ends that are not written are not given here. bb‑DTPA gadolinium tetramer = not defined here

Experiments:
[1] = target: T1, dried human collagen type I (Homo sapiens, UniProt P02452+P08123); assay: Dried collagen assay (DCA), human collagen; format: binding; settings: 5 μM peptide in PBS pH 7.4, 2 hours at room temperature; percent bound
T1 construct: Acid soluble human collagen extracted from placenta; purchased Sigma C7774; host or cells: human placenta (tissue extract)

[2] = target: T2, dried rat collagen type I (Rattus norvegicus, UniProt P02454+P02466); assay: Dried collagen assay (DCA), rat collagen; format: binding; settings: for % Collagen Binding, Dried Rat: 5 μM peptide in PBS pH 7.4, 2 hours at room temperature, percent bound
T2 construct: Rat collagen (acid soluble, type I, rat tail, Upstate USA, Inc, cat# 08-115); purchased Upstate USA, Inc 08-115; host or cells: rat tail (tissue extract)
Experimental: Peptides identified using the phage-display protocol were screened using dried collagen assays (DCA) as described in A.-D. below.
For the final assay, a 1:10 volume of 10×PBS (100 mM NaH2PO4, 1.5 M NaCl pH 7.4) is added to the collagen solution (final 1×PBS) and incubated at 37° C. for 2 hours.
An additional 90 μL is reserved in a HPLC glass vial as a measure of the total concentration.

[3] = tested on: perfused Langendorff rat heart; assay: Equilibrium binding to perfused Langendorff rat heart; settings: for heart uptake relative to GdDTPA: perfused rat heart; for Heart: 10 minutes recirculating perfusion
Experimental: After deep anesthesia with pentobarbital (80 mg/kg ip), the chest cavity of a male Sprague Dawley rat (300 g) was opened, retracted and the heart was removed immediately and placed in an ice-cold normal Krebs-Henseleit (K-H) solution (NaCl, 118 mM; KCl, 4.7 mM; CaCl2, 2.5 mM; MgSO4, 1.2 mM; KH2PO4, 1.2 mM; NaHCO3, 25 mM; glucose, 5.5 mM). A K-H buffer filled 20 Gauge needle was inserted into the apex of the heart penetrating into the bottom of the chamber. This was attached to a pressure transducer used to record and monitor heart function. Perfusion pressure (60 mmHg) was monitored using a second transducer. The heart was perfused at a constant flow rate of 10-12 mL/min with 37° C. Krebs-Henseleit buffer saturated with a mixture of 95% O2 and 5% CO2 gas. The heart was paced at 300 beats/min.
Two peptide test articles, a high collagen binding peptide (SEQ ID NO: 144) and a low collagen binding peptide (SEQ ID NO: 173), are compared to GdDTPA. The appropriate test article was added to the K-H buffer solution to a total concentration of either 3 or 30 μM. Also added to the K-H buffer was a radiotracer analog of each peptide or GdDTPA. For the peptides, the radiotracer was an aliquot of the appropriate I-125 labeled peptide derivative (see Example 5 for protocol). For GdDTPA, the tracer added was Tc-99m labeled DTPA. The amount of radioactivity added to the buffer solution was 1-5 μCi.
The heart was perfused for a period of 10 minutes and the perfusion solution was recycled through the heart. The total volume of K-H buffer used was 50-60 mL. After 10 min, the heart was removed from the apparatus and any connective tissue was removed. The heart was opened, fluid in the chambers drained, and the interior blotted dry with filter paper. The heart was then weighed and the radioactivity in the heart measured with a Packard Cobra 5003 Gamma Scintillation counter. An aliquot of the K-H buffer was also weighed and counted. Studies were performed at least in duplicate.
The dual peptide gadolinium tetramer (Compound ID 803) was compared to GdDTPA. Compound ID 803 and GdDTPA were added to the K-H buffer solution to a total concentration of 3 μM. Also added to the K-H buffer was a radiotracer analog of Compound ID 803 or GdDTPA. For Compound ID 803, the radiotracer was an aliquot of the In-111 labeled compound. For GdDTPA, the tracer added was Tc-99m labeled DTPA. The amount of radioactivity added to the buffer solution was 1-5 μCi.

[4] = tested on: perfused Langendorff rat heart; assay: Washout kinetics from perfused Langendorff rat heart; settings: for fraction of compound present at 0 minutes post infusion that remains at 10 minutes: 10 minutes after infusion
Experimental: A K-H buffer filled 20 Gauge needle was inserted into the apex of the heart penetrating into the bottom of the chamber. This was attached to a pressure transducer used to record and monitor heart function. Perfusion pressure (60 mmHg) was monitored using a second transducer. The heart was perfused at a constant flow rate of 10-12 mL/min with 37° C. […] The heart was paced at 300 beats/min.
A Langendorff rat heart preparation was perfused with K-H buffer at a rate of 10-12 mL/min. […] After the infusion was finished, the heart was either removed or perfusion was allowed to continue for an additional 10 minutes and then the heart was removed. The perfusion buffer was not recirculated through the heart. After removal of any connective tissue, the heart was opened, fluid in the chambers drained, and the interior blotted dry with filter paper. […] An aliquot of the K-H buffer was also weighed and counted. Concentration estimates were decay corrected. Studies were performed at least in duplicate.

[5] = Biodistribution (heart, blood) after tail vein injection, radiotracer counting; format: in vivo, Sprague-Dawley rats; settings: for Blood (% ID/g) / Heart (% ID/g): rat, 0.5 μmol/kg tail vein
Experimental: Concentration estimates were decay corrected. Studies were performed at least in duplicate.

[6] = MR phantom study: T1 of samples at 0.47 Tesla; format: physicochemical
Experimental: Acid soluble human collagen type I extracted from placenta (Sigma, cat# C7774, lot#083K375) was dissolved in 15 mM HCl (3.5 mg/mL) by vortexing and gently shaking for 3-4 hours at 4° C. The acid soluble collagen was dialyzed against PBS (pH 7.4). Protein concentration was determined by the BCA method (Pierce, Cat#23225) using bovine collagen (Vitrogen, cat#FXP-019) as a reference standard. The final collagen concentration for the stock solution was 9 μM.
Rat collagen (acid soluble, type I, rat tail, Upstate USA, Inc. Cat# 08-115) was dialyzed against 10 mM Phosphate buffer (NaH2PO4, pH 4.2). The final collagen concentration for the stock solution was approx. 12 μM.
(§1) Samples: • 1. […] Sample prepared as sample 2, but centrifuged to separate insoluble rat collagen gel • 5. Sample prepared as sample 3, but centrifuged to separate insoluble human collagen gel • 6. 27 μM GdDTPA solution in PBS, pH 7.4 • 7. 27 μM GdDTPA in a solution of 5.0 μM rat type I collagen in 10 mM phosphate buffer, pH 5 incubated at 37° C. overnight to form a gel • 8. Sample prepared as in sample 7, but centrifuged to separate insoluble rat collagen gel • 9. Homogeneous gel of 5 μM rat collagen • 10. Homogeneous gel of 7.5 μM human collagen
T1 was determined for samples 1, 2, 3, 6, 7, 9, 10 at 0.47 Tesla using a Bruker NMS120 minispec NMR analyzer operating at 37° C.

rat type I collagen gel = target: T3, rat type I collagen gel (Rattus norvegicus, UniProt P02454+P02466); assay: MR phantom imaging of collagen gel samples at 4.7 T
T3 construct: Rat collagen (acid soluble, type I, rat tail, Upstate USA, Inc, cat# 08-115); purchased Upstate USA, Inc 08-115; host or cells: rat tail (tissue extract)
Experimental: as §1
Samples for imaging were placed in glass tubes that were in turn placed in tubes containing water. Images were acquired at 4.7 T on a Bruker Biospec Imager using a Multi-Slice Multi-Echo Method with variable Relaxation Delay (MSMEVTR) experiment. The spin echo time and the relaxation delay were set to TE=11.2 ms and TR=500 ms, respectively with a flip angle of 30°. Images were acquired of sample 2, sample 4, sample 7, and sample 8. […] Sample 7 and 8 show uniform signal intensity.

T1 sequence (P02452 162-1218 limits assumed): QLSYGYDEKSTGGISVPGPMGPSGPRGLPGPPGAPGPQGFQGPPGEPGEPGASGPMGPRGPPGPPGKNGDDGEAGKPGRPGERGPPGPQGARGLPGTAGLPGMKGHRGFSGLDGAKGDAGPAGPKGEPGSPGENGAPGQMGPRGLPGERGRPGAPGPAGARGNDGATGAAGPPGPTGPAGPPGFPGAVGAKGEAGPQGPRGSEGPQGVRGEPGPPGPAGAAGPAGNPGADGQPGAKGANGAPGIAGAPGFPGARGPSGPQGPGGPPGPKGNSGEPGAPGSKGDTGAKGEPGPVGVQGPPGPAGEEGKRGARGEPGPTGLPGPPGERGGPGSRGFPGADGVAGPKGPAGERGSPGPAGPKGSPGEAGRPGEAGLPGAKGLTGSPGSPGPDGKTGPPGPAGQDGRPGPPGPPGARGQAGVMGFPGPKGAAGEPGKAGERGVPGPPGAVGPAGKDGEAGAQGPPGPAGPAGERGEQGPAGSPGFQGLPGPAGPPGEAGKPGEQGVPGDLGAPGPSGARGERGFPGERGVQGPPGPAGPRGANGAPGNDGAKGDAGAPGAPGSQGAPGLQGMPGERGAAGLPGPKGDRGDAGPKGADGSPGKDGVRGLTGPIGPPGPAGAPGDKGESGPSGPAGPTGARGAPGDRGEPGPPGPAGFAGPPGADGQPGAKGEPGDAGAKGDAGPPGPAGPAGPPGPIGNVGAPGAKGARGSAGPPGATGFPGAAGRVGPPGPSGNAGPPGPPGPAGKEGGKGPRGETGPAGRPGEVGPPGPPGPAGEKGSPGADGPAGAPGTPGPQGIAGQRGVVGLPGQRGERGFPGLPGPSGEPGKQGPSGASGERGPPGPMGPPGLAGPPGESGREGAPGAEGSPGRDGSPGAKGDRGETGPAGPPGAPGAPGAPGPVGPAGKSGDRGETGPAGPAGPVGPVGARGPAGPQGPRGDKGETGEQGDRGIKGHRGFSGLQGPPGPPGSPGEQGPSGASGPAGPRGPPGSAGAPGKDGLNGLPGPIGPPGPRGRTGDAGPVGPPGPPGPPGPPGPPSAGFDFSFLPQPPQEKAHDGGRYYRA
T1 sequence (P08123 80-1119 limits assumed): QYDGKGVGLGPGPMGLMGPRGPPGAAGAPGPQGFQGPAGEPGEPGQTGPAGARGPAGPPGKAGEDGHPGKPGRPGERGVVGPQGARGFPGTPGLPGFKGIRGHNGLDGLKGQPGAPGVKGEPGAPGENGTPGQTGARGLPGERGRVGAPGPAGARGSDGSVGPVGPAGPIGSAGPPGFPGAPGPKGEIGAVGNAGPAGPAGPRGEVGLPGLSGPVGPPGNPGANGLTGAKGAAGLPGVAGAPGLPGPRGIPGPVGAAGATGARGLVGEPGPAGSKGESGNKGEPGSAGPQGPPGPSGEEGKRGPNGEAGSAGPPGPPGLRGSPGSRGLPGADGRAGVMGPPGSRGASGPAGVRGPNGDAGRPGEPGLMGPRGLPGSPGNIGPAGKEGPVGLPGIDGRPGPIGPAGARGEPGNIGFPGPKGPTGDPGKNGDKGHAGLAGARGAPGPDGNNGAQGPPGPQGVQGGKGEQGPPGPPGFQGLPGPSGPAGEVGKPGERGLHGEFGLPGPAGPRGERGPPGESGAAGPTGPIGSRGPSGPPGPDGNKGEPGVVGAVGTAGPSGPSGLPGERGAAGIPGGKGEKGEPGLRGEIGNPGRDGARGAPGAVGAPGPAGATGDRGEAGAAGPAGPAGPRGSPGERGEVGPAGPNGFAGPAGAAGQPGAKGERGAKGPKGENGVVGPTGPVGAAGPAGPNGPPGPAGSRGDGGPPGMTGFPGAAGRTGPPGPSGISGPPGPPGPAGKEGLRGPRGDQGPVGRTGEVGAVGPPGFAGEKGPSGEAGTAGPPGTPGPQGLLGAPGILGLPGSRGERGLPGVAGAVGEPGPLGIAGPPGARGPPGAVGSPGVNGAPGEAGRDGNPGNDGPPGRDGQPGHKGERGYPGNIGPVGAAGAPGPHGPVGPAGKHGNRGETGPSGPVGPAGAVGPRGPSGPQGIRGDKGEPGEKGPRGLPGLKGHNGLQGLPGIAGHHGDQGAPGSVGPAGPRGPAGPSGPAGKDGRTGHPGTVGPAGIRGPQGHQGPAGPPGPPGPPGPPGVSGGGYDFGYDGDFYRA
T2 sequence (P02454 152-1207 limits assumed): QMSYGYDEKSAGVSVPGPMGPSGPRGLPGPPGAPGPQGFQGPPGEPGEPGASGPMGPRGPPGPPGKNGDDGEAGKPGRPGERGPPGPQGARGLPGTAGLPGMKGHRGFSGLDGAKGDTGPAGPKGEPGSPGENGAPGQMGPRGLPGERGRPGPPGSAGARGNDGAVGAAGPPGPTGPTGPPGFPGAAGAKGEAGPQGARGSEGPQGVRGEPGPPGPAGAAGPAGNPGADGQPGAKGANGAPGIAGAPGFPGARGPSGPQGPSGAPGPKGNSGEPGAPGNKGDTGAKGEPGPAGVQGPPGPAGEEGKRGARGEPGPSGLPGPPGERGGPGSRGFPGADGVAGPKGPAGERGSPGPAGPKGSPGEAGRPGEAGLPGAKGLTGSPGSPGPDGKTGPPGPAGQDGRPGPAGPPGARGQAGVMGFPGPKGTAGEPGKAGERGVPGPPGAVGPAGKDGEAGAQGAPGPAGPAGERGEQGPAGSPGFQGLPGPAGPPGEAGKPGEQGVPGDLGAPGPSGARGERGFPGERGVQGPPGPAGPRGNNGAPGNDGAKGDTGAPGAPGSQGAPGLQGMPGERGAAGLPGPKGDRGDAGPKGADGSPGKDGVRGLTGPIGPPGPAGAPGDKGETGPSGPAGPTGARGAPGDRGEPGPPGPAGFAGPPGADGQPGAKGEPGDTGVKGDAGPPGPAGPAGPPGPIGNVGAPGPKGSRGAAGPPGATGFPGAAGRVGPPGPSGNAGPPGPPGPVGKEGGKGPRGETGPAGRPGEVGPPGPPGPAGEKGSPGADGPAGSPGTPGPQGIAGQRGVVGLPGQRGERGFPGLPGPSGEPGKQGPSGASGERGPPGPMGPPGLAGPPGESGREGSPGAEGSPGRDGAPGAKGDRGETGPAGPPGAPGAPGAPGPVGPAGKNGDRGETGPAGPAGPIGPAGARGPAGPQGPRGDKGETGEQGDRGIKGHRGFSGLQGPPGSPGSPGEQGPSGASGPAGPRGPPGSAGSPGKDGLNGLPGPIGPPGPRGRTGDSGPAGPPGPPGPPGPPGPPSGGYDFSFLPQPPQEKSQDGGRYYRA
T2 sequence (P02466 86-1125 limits assumed): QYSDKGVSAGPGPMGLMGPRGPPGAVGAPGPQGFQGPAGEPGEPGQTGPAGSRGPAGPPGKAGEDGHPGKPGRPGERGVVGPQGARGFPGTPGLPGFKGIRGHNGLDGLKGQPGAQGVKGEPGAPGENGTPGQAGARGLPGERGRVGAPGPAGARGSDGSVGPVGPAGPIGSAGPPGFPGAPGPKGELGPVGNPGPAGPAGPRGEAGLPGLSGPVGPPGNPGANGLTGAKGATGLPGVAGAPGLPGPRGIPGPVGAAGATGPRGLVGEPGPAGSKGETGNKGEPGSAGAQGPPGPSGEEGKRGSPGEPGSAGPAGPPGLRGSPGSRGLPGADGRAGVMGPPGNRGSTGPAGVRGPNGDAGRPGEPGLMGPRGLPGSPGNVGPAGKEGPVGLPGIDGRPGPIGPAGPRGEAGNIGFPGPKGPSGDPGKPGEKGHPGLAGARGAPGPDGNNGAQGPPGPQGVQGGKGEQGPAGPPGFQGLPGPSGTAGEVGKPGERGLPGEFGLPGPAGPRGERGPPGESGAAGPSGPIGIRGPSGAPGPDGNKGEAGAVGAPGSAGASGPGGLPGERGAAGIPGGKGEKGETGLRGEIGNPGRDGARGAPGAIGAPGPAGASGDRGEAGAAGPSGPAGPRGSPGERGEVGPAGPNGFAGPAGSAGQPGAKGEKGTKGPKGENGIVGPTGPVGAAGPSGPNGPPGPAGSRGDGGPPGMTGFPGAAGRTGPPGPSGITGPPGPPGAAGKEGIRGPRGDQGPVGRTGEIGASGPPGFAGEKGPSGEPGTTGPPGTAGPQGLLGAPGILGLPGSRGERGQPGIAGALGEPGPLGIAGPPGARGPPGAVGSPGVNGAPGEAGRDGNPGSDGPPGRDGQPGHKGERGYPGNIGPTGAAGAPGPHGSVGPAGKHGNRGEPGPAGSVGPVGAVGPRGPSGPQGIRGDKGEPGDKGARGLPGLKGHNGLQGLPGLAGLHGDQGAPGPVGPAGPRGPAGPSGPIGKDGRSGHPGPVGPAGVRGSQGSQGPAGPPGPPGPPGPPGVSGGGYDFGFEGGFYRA
T3 sequence (P02454 152-1207 limits assumed): as the sequence (P02454 152-1207 limits assumed) above
T3 sequence (P02466 86-1125 limits assumed): as the sequence (P02466 86-1125 limits assumed) above

Dried Human Collagen Binding [1]	% Collagen Binding, Dried Rat [2]	Substance	also measured
2%	2%	175 (QWTCSGDEYTWHCNYE) [compound 175]	
5%		174 (QWTCSGDEYTWHCNYE) [compound 174]	
	4%	169 (QWTCSGDEYTWHCNYE) [compound 169]	
3%	2%	168 (QWTCSGDEYTWHCNYE) [compound 168]	
2%	2%	176 (QWTCSGDEYTWHCNYE) [compound 176]	
	6%	171 (QWTCSGDEYTWHCNYE) [compound 171]	
5%	4%	173 (QWTCSGDEYTWHCNYE) [compound 173]	

Continued, substance first:

Substance	Dried Human Collagen Binding [1]	% Collagen Binding, Dried Rat [2]	also measured
38 (GWSCHGDAADWPCQWS; disulfide 4-13 (inferred)) [compound 38]	6%		
113 (FSECVWVNAYQCEYF; disulfide 4-12 (inferred)) [compound 113]	3%		
2 (WGWCEWAQNNCWNY) [compound 2]	14%		
13 (QWTCSGDEYTWHCNYE; disulfide 4-13 (inferred)) [compound 13]	78-85%		
167 (QWTCSGDEYTWHCNYE) [compound 167]	4%		
37 (LWNCHGTDANWKCVLN; disulfide 4-13 (inferred)) [compound 37]	7%		
190 (GQWTCSGDEYTWHCNYE) [compound 190]			% Binding Collagen I Rat ([2]; chelate conjugates): 5%
Compound ID 803: dual peptide, gadolinium tetramer; bb-DTPA tetramer diacid coupled to N-terminus of SEQ ID NO. 264 peptide ({bb‑DTPA gadolinium tetramer}-GQWHCTTSFPHHYCLYG; disulfide 5-14 (inferred); reading uncertain; also: Gd complex) [dual peptide, gadolinium tetramer; 264 peptide]			heart uptake relative to GdDTPA [3]: about 7 times; fraction of compound present at 0 minutes post infusion that remains at 10 minutes [4]: 54%
130 (WWACQKGRHDWEKCRWL; disulfide 4-14 (inferred)) [compound 130]	32%		
165 (QWTCSGDEYTWHCNYE) [compound 165]	2%	4%	
166 (QWTCSGDEYTWHCNYE) [compound 166]	2%	3%	
Q W T C S G D E Y T w H C N Y E (QWTCSGDEYT[dW]HCNYE; disulfide 4-13 (inferred)) [SEQ ID NO. 173]			Heart:Buffer ([3]; buffer 3.0 μM): 0.37 ± 0.08; Heart ([3]; buffer 3.0 μM): 1.1 ± 0.2 nmol/g; specific heart uptake (in words) ([3]; heart concentrations compared with GdDTPA): no specific uptake
36 (SWSCGGDHNAWKCQYS; disulfide 4-13 (inferred)) [compound 36]	7%		
65 (KWECVHTKGEWYCETK; disulfide 4-13 (inferred)) [compound 65]	7%		
137 (YHACYQAGCWAW; disulfide 4-9 (inferred)) [compound 137]		7%	
39 (GWQCSGDASVWNCDWI; disulfide 4-13 (inferred)) [compound 39]	6%		
159 (YHACYQAGCWIW) [compound 159]	7%		
112 (AKACSVHDEFGCLIS; disulfide 4-12 (inferred)) [compound 112]	9%		
Q W T C S G D A Y T W H C N Y E (QWTCSGDAYTWHCNYE) [SEQ ID NO. 144]			Heart:Blood ([5]; 1 min post injection): 0.38; Heart:Blood ([5]; 5 min post injection): 1.08; Blood (% ID/g) ([5]; 1 min post injection): 1.8 ± 0.2 % ID/g; Heart (% ID/g) ([5]; 1 min post injection): 0.68 ± 0.01 % ID/g; Blood (% ID/g) ([5]; 5 min post injection): 0.46 ± 0.07 % ID/g; Heart (% ID/g) ([5]; 5 min post injection): 0.50 ± 0.16 % ID/g; Heart:Buffer ([3]; buffer 3.0 μM): 3.3 ± 0.8; Heart ([3]; buffer 3.0 μM): 9.8 ± 2.3 nmol/g; Heart:Buffer ([3]; buffer 30 μM): 4.0 ± 1.7; Heart ([3]; buffer 30 μM): 120 ± 50 nmol/g; heart uptake relative to GdDTPA [3]: about 10 times; Heart (% ID/g) ([4]; 0 min after infusion): 4.6 ± 1.1 % ID/g; Heart (% ID/g) ([4]; 10 min after infusion, non-recirculated buffer): 3.1 ± 1.6 % ID/g; fraction of compound present at 0 minutes post infusion that remains at 10 minutes [4]: 68%
142 (QWTCSADEYTWHCNYE) [compound 142]		6%	
163 (YHACYQAGCWIW) [compound 163]		53%	
147 (QWTCSGDEYTAHCNYE) [compound 147]	5%		
74 (QWHCTTRFPHHYCLYG) [compound 74]	67-69%		
Glu-DTPA-Gd-G.Q.W.H.C.T.T.R.F.P.H.H.Y.C.L.Y.G-PEG-H (GQWHCTTRFPHHYCLYG; disulfide 5-14 (inferred); not fully specified (N-terminus, C-terminus); also: Gd complex of DTPA) [SEQ ID NO. 186]			T1 ([6]; in 5.0 μM rat collagen gel, 10 μM Compound ID 1022 or 27 μM GdDTPA, 37° C.): 2.370 s; T1 ([6]; in 7.5 μM human collagen gel, 10 μM Compound ID 1022, 37° C.): 2.100 s; T1 ([6]; in PBS pH 7.4, 10 μM Compound ID 1022 or 27 μM GdDTPA, 37° C.): 2.375 s; MR signal of centrifuged collagen gel pellet versus supernatant (rat type I collagen gel): the pellet for sample 4 was much brighter than the supernatant
3 (PWWCHEMPSMCFGF) [compound 3]	2%		
